Test results taken from patent US5993803A, “Method of reducing the severity of host vs graft reaction by down-regulating hsp60 autoimmunity” (Yeda Research and Development Co., Ltd., priority 1996, dated 1999).
“Also recorded” adds a separate entry of the source.

Assays:
[1] = tested on: BALB/c (H-2^d) skin allograft rejection in wild-type NOD (H-2^g7) mice; assay type: in vivo, mouse; details: wild-type NOD recipients; 50 μg in incomplete Freund's adjuvant s.c. 2 weeks before transplantation; Wilcoxon test; FIG. 3B
Protocol: (§1) FIGS. 3A and 3B show the effects of treating C57BL6 (H-2^b) mice (FIG. 3A) or wild-type NOD (H-2^g7) mice (FIG. 3B) with hsp60 (50 μg in incomplete Freund's adjuvant; Sigma) administered subcutaneously in the back 2 weeks before transplantation of BALB/c (H-2^d) skin (Elias et al., 1994; Elias et al., 1995). […] Control mice were untreated (open squares) or treated with incomplete Freund's adjuvant containing 50 μg of recombinant glutathione transferase (open diamonds).
Wild-type NOD (H-2^g7) mice were treated with various hsp60 peptides in incomplete Freund's adjuvant. […] Control mice were untreated (open square) or were treated with incomplete Freund's adjuvant containing 50 μg of peptide p11, a control non-immunogenic hsp60 peptide (closed diamond). […] Each group contained 10-12 mice.
Patches of dorsal skin of one cm^2 were removed from anesthetized recipient mice treated with Nembutal 6 mg/ml, 0.25 ml per mouse and replaced by the donor skin grafts. Histoacryl (B. Braun Meleungen AG, D-34209 Melsungen, Germany) was applied around the grafts and Nobecutan (ASTR, Astra Tech, POB 13, Glos G15, UK) was sprayed over them.

[2] = tested on: spleen cells of treated NOD or C57BL mice stimulated with irradiated BALB/c spleen cells; assay: Mixed lymphocyte reaction (MLR) of spleen cells from treated, grafted mice with irradiated BALB/c spleen cells; assay type: cell-based, mouse
Excerpt: T cells reactive to hsp60 and other hsp molecules have been isolated from cardiac allografts (Moliterno et al., 1995) as well as from other inflammatory lesions (Selmaj et al., 1991; Mor et al., 1992). […] It is theorized that the constitutive hyper-expression of hsp60 in the donor Eα-hsp60 skin amplifies the activation of anti-hsp60 autoimmune T cells at the site and enhance the local immune response by adding pro-inflammatory (TH1-type) cytokines, such as INFγ (Finkelman et al., 1990), to the allograft reaction, thereby inciting and abetting other T cells responsive to the foreign antigens. Conversely, hsp60 autoimmune T cells that have been activated to produce anti-inflammatory cytokines of the TH2-type, such as IL-10, should serve to shut down the effector immune reaction by a form of by-stander suppression (Weiner et al., 1994). To test whether treatment with hsp60 peptides might modify the cytokine response, NOD or C57BL mice were treated with hsp60 or with hsp60 peptide p12. Control mice were untreated or were treated with saline emulsified in IFA. The mice were grafted with BALB/c skin grafts and twenty days later, just at the beginning of graft rejection in the control mice, groups of 5-10 mice were sacrificed and their spleen cells assayed individually in a standard mixed lymphocyte reaction (MLR) with irradiated BALB/c spleen cells as stimulators (Lohse et al., 1990). […] However, the MLR media were also tested for the presence of the TH1 cytokine IFNγ and the TH2 cytokine IL-10.

[3] = tested on: BALB/c (H-2^d) skin allograft rejection in C57BL/6 (H-2^b) mice; assay type: in vivo, mouse; details: C57BL/6 recipients; 50 μg in incomplete Freund's adjuvant s.c. 2 weeks before transplantation; Wilcoxon test; FIG. 3A
Protocol: as §1

B1: hsp60: Recombinant human 60 kDa heat shock protein, SEQ ID NO:1 (protein, UniProt P10809 27-573, looked up)
60 kDa heat shock protein, …: AKDVKFGADARALMLQGVDLLADAVAVTMGPKGRTVIIEQSWGSPKVTKDGVTVAKSIDLKDKYKNIGAKLVQDVANNTNEEAGDGTTTATVLARSIAKEGFEKISKGANPVEIRRGVMLAVDAVIAELKKQSKPVTTPEEIAQVATISANGDKEIGNIISDAMKKVGRKGVITVKDGKTLNDELEIIEGMKFDRGYISPYFINTSKGQKCEFQDAYVLLSEKKISSIQSIVPALEIANAHRKPLVIIAEDVDGEALSTLVLNRLKVGLQVVAVKAPGFGDNRKNQLKDMAIATGGAVFGEEGLTLNLEDVQPHDLGKVGEVIVTKDDAMLLKGKGDKAQIEKRIQEIIEQLDVTTSEYEKEKLNERLAKLSDGVAVLKVGGTSDVEVNEKKDRVTDALNATRAAVEEGIVLGGGCALLRCIPALDSLTPANEDQKIGIEIIKRTLKIPAMTIAKNAGVEGSLIVEKIMQSSSEVGYDAMAGDFVNMVEKGIIDPTKVVRTALLDAAGVASLLTTAEVVVTEIPKEEKDPGMGAMGGMGGGMGGGMF
survival of BALB/c skin grafts (delay in skin allograft rejection) [1]: delayed rejection; also recorded: significant
T-cell proliferation by thymidine incorporation in MLR, treated vs control groups ([2]; spleen cells taken 20 days after BALB/c skin grafting, hsp60 and p12 treated mice reported together): no significant differences
IL-10 produced in MLR media ([2]; spleen cells taken 20 days after grafting, hsp60 and p12 treated mice pooled, control mice 3.5±0.6, p=0.004): 8 ± 1.4 ng/mL
IFNγ produced in MLR media ([2]; spleen cells taken 20 days after grafting, hsp60 and p12 treated mice pooled, control mice 9.25±1.7, p=0.002): 3.13 ± 1.4 ng/mL
survival of BALB/c skin grafts (delay in skin allograft rejection) [3]: significantly prolonged survival; also recorded: significant
